Values quoted from earlier work in PMC5021969.

Molecular target: CXCL1 (Mus musculus) (UniProt P12850)

CXCL1 (from UniProt P12850)
Kd: 10 µM
